Assay results published in article PMC12391449, “Hepatitis C virus NS3 helicase contributes to (−) strand RNA synthesis”.

Molecular target: NS3h wt (NS3 helicase domain) (Hepatitis C virus JFH1 (genotype 2a), UniProt Q99IB8 1218-1662)
Assay: fluorescence polarization; probe; Kd of 5 nM only assumed for fit; FP competition: 15 nM NS3h, 15 nM Cy5-dT15, 25 mM MOPS pH 7.5, 1.25 mM MgCl2, 0.0025 mg/ml BSA, 0.005% Tween20, 0.025 mM DTT, 0-2000 nM competitor, 20 min, 23 C
Conditions: protein: recombinant; tags: C-terminal His tag; label: 5' Cy5

NS3h wt (NS3 helicase domain), sequence (Q99IB8 1218-1662): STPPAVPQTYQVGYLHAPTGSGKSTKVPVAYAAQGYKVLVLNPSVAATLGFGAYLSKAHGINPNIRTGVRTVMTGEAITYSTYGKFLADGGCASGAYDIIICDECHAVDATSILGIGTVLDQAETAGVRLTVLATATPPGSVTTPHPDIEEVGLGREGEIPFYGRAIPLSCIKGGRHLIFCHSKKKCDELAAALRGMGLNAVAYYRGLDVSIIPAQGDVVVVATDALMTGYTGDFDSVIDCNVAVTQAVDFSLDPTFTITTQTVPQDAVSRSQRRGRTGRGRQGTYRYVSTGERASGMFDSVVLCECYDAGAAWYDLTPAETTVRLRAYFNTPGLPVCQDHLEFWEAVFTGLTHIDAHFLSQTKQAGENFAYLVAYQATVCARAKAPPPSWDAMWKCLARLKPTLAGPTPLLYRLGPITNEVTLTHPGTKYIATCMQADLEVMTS

Q: Does TTTTTTTTTTTTTTT (ssDNA) [Cy5-dT15] bind?
A: Result: binds
